Data reported in article PMC6165534, “Inhibition of Homophilic Interactions and Ligand Binding of the Receptor for Advanced Glycation End Products by Heparin and Heparin-Related Carbohydrate Structures” (Medicines, 2018).

Target: the molecule itself
Assay: bead aggregation assay; monomeric fluorescent protein A coated beads incubated with 10 μg/mL of the Ig-fusion proteins, no other exogenous ligands; aggregation followed by fluorescence microscopy, index Nt/N0, pictures after 60 min

B1: sRAGE–Ig fusion protein lacking C1-domain (Fc fusion, human, UniProt Q15109 28-331, looked up)
chain: ARIGEPLVLKCKGAPKKPPQRLEWKLNTGRTEAWKVLSPQGGGPWDSVARVLPNGSLFLPAVGIQDEGIFRCQAMNRNGKETKSNYRVRVYQPVPLEEVQLVVEPEGGAVAPGGTVTLTCEVPAQPSPQIHWMKDGVPLPLPPSPVLILPEIGPQDQGTYSCVATHSSHGPQESRAVSISIIEPGEEGPTAG
notes: RAGE, human, extracellular part without the C1-domain, amino acids 28–119 + 232–331; also called delta C1; source: Drosophila S2 cells, purified (protein A-agarose chromatography)
- binding result: binds

B2: sRAGE–Ig fusion protein lacking C2-domain (Fc fusion, human, UniProt Q15109 28-231, looked up)
chain: ARIGEPLVLKCKGAPKKPPQRLEWKLNTGRTEAWKVLSPQGGGPWDSVARVLPNGSLFLPAVGIQDEGIFRCQAMNRNGKETKSNYRVRVYQIPGKPEIVDSASELTAGVPNKVGTCVSEGSYPAGTLSWHLDGKPLVPNEKGVSVKEQTRRHPETGLFTLQSELMVTPARGGDPRPTFSCSFSPGLPRHRALRTAPIQPRVWE
notes: RAGE, human, extracellular part without the C2-domain, amino acids 28–231; also called delta C2; source: Drosophila S2 cells, purified (protein A-agarose chromatography)
- binding result: binds

B3: RAGE V1-domain Ig-fusion protein (Fc fusion, human, UniProt Q15109 28-119, looked up)
chain: ARIGEPLVLKCKGAPKKPPQRLEWKLNTGRTEAWKVLSPQGGGPWDSVARVLPNGSLFLPAVGIQDEGIFRCQAMNRNGKETKSNYRVRVYQ
notes: RAGE, human, V1-domain, amino acids 28–119; also called V1–Ig; RAGE V1–Fc; source: Drosophila S2 cells, purified (protein A-agarose chromatography)
- binding result: binds
